Results from patent US20220017622A1 (Pfizer, published 2022).
Positions count from the first letter of the chain named.

B1: B7-H4xCD3 bispecific antibody 0998 (bispecific antibody, IgG2)
heavy 1: EVQLLESGGGLVQPGGSLRLSCAASGFTFSSYAMSWVRQAPGKGLEWVSAISGGGGSTQYADSVKGRFTISRDNSKNTLYLQMNSLRAEDTAVYYCARDIQWFGESTLFDYWGQGTLVTVSSASTKGPSVFPLAPCSRSTSESTAALGCLVKDYFPEPVTVSWNSGALTSGVHTFPAVLQSSGLYSLSSVVTVPSSNFGTQTYTCNVDHKPSNTKVDKTVERKCEVECPECPAPPVAGPSVFLFPPKPKDTLMISRTPEVTCVVVAVSHEDPEVQFNWYVDGVEVHNAKTKPREEQFNSTFRVVSVLTVVHQDWLNGKEYKCKVSNKGLPSSIEKTISKTKGQPREPQVYTLPPSREEMTKNQVSLTCEVKGFYPSDIAVEWESNGQPENNYKTTPPMLDSDGSFFLYSKLTVDKSRWQQGNVFSCSVMHEALHNHYTQKSLSLSPG
light 1: DIQLTQSPSTLSASVGDRVTITCRASQSIRSWLAWFQQKPGKAPKLLIYKASSLEGGVPSRFSGSGSGTEFTLTISSLQPDDFATYYCQQYNSYSRTFGQGTKVEIKRTVAAPSVFIFPPSDEQLKSGTASVVCLLNNFYPREAKVQWKVDNALQSGNSQESVTEQDSKDSTYSLSSTLTLSKADYEKHKVYACEVTHQGLSSPVTKSFNRGEC
heavy 2: EVQLVESGGGLVQPGGSLRLSCAASGFTFSDYYMTWVRQAPGKGLEWVAFIRNQARGYTSDHNPSVKGRFTISRDNAKNSLYLQMNSLRAEDTAVYYCARDRPSYYVLDYWGQGTTVTVSSASTKGPSVFPLAPCSRSTSESTAALGCLVKDYFPEPVTVSWNSGALTSGVHTFPAVLQSSGLYSLSSVVTVPSSNFGTQTYTCNVDHKPSNTKVDKTVERKCRVRCPRCPAPPVAGPSVFLFPPKPKDTLMISRTPEVTCVVVAVSHEDPEVQFNWYVDGVEVHNAKTKPREEQFNSTFRVVSVLTVVHQDWLNGKEYKCKVSNKGLPSSIEKTISKTKGQPREPQVYTLPPSREEMTKNQVSLTCLVKGFYPSDIAVEWESNGQPENNYKTTPPMLDSDGSFFLYSRLTVDKSRWQQGNVFSCSVMHEALHNHYTQKSLSLSPGK
light 2: DIQMTQSPSSLSASVGDRVTITCTSSQSLFNVRSQKNYLAWYQQKPGKAPKLLIYWASTRESGVPSRFSGSGSGTDFTLTISSLQPEDFATYYCKQSYDLFTFGGGTKVEIKRTVAAPSVFIFPPSDEQLKSGTASVVCLLNNFYPREAKVQWKVDNALQSGNSQESVTEQDSKDSTYSLSSTLTLSKADYEKHKVYACEVTHQGLSSPVTKSFNRGEC
B2: B7-H4xCD3 bispecific antibody 1001 (bispecific antibody, IgG2)
heavy 1: B1 heavy 1 with Q59Y, E105R
light 1: B1 light 1
heavy 2: B1 heavy 2
light 2: B1 light 2
B3: B7-H4xCD3 bispecific antibody 1135 (bispecific antibody, IgG2)
heavy 1: EVQLVESGGGLVQPGGSLRLSCAASGGSFSGYYWNWVRQAPGKGLEWIGEINHSGSATYNPSLKSRVTISVDTAKNSLYLQMNSLRAEDTAVYYCARGLYNWNVDHWGQGTLVTVSSASTKGPSVFPLAPCSRSTSESTAALGCLVKDYFPEPVTVSWNSGALTSGVHTFPAVLQSSGLYSLSSVVTVPSSNFGTQTYTCNVDHKPSNTKVDKTVERKCEVECPECPAPPVAGPSVFLFPPKPKDTLMISRTPEVTCVVVAVSHEDPEVQFNWYVDGVEVHNAKTKPREEQFNSTFRVVSVLTVVHQDWLNGKEYKCKVSNKGLPSSIEKTISKTKGQPREPQVYTLPPSREEMTKNQVSLTCEVKGFYPSDIAVEWESNGQPENNYKTTPPMLDSDGSFFLYSKLTVDKSRWQQGNVFSCSVMHEALHNHYTQKSLSLSPG
light 1: DIQMTQSPSSLSASVGDRVTITCRASQGIRNDLGWYQQKPGKAPKRLIYAASSLQSGVPSRFSGSGSGTDFTLTISSLQPEDFATYYCLQHNAYPRTFGGGTKVEIKRTVAAPSVFIFPPSDEQLKSGTASVVCLLNNFYPREAKVQWKVDNALQSGNSQESVTEQDSKDSTYSLSSTLTLSKADYEKHKVYACEVTHQGLSSPVTKSFNRGEC
heavy 2: B1 heavy 2
light 2: B1 light 2
B4: B7-H4xCD3 bispecific antibody 1166 (bispecific antibody, IgG2)
heavy 1: B1 heavy 1 with Q59Y, F103Y
light 1: B1 light 1 with L4M, T10S, I29T, F36Y, E70D, D81E, N92G
heavy 2: B1 heavy 2
light 2: B1 light 2
B5: B7-H4xCD3 bispecific antibody 0976 (bispecific antibody, IgG2)
heavy 1: B3 heavy 1 with A24V, V37I, A40P, N52D, S54Q, A57T, T58K, G98E
light 1: B3 light 1
heavy 2: B1 heavy 2
light 2: B1 light 2
B6: B7-H4xCD3 bispecific antibody 1003 (bispecific antibody, IgG2)
heavy 1: B1 heavy 1 with Q59Y
light 1: B1 light 1 with L4M, T10S, I29T, W32H, F36Y, E70D, D81E, N92G
heavy 2: B1 heavy 2
light 2: B1 light 2
B7: B7-H4xCD3 bispecific antibody 1000 (bispecific antibody, IgG2)
heavy 1: B1 heavy 1 with Q59Y, F103H
light 1: B1 light 1
heavy 2: B1 heavy 2
light 2: B1 light 2
B8: B7-H4xCD3 bispecific antibody 0974 (bispecific antibody, IgG2)
heavy 1: B3 heavy 1 with V37I, A40P, N52D, S54Q, A57T, T58K
light 1: B3 light 1
heavy 2: B1 heavy 2
light 2: B1 light 2
B9: B7-H4xCD3 bispecific antibody 0978 (bispecific antibody, IgG2)
heavy 1: B3 heavy 1 with V37I, A40P, N52D, S54Q, A57T, T58K, G98E
light 1: B3 light 1 with N92S, A93S
heavy 2: B1 heavy 2
light 2: B1 light 2
B10: B7-H4xCD3 bispecific antibody 0090 (bispecific antibody, human IgG1, kappa)
heavy 1: QVQLQQWGAGLLKPSETLSLTCAVYGGSFSGYYWNWIRQPPGKGLEWIGEINHSGSTKYNPSLKSRVTISGDTSKNQFSLKLNSVTAADTAVYYCVRGLYNWNVDSWGQGTLVTVSSASTKGPSVFPLAPSSKSTSGGTAALGCLVKDYFPEPVTVSWNSGALTSGVHTFPAVLQSSGLYSLSSVVTVPSSSLGTQTYICNVNHKPSNTKVDKKVEPKSCDKTHTCPPCPAPEAAGAPSVFLFPPKPKDTLMISRTPEVTCVVVDVSHEDPEVKFNWYVDGVEVHNAKTKPREEQYNSTYRVVSVLTVLHQDWLNGKEYKCKVSNKALPAPIEKTISKAKGQPREPQVYTLPPSREEMTKNQVSLTCEVKGFYPSDIAVEWESNGQPENNYKTTPPVLDSDGSFFLYSKLTVDKSRWQQGNVFSCSVMHEALHNHYTQKSLSLSPG
light 1: B3 light 1 with A50V, D70E, A93S, R96Y, G100Q, V104L
heavy 2: EVQLVESGGGLVQPGGSLRLSCAASGFTFSDYYMTWVRQAPGKGLEWVAFIRNQARGYTSDHNPSVKGRFTISRDNAKNSLYLQMNSLRAEDTAVYYCARDRPSYYVLDYWGQGTTVTVSSASTKGPSVFPLAPSSKSTSGGTAALGCLVKDYFPEPVTVSWNSGALTSGVHTFPAVLQSSGLYSLSSVVTVPSSSLGTQTYICNVNHKPSNTKVDKKVEPKSCDKTHTCPPCPAPEAAGAPSVFLFPPKPKDTLMISRTPEVTCVVVDVSHEDPEVKFNWYVDGVEVHNAKTKPREEQYNSTYRVVSVLTVLHQDWLNGKEYKCKVSNKALPAPIEKTISKAKGQPREPQVYTLPPSREEMTKNQVSLTCLVKGFYPSDIAVEWESNGQPENNYKTTPPVLDSDGSFFLYSRLTVDKSRWQQGNVFSCSVMHEALHNHYTQKSLSLSPG
light 2: B1 light 2
B11: B7-H4xCD3 bispecific antibody 1130 (bispecific antibody, IgG2)
heavy 1: B3 heavy 1 with V37I, A40P
light 1: B3 light 1
heavy 2: B1 heavy 2
light 2: B1 light 2

Molecular target: T1, human B7-H4 on cells (human, UniProt Q7Z7D3 25-282)
T1 sequence (looked up): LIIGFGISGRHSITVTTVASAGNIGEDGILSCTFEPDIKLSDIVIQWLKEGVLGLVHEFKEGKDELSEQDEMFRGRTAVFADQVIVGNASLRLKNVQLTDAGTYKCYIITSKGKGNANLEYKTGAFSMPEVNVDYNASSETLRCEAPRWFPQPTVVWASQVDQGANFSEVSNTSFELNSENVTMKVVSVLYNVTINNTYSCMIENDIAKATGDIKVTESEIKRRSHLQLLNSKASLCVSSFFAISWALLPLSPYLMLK
Experiment: cell-based or functional assay
Wherever T cell mediated tumor cell killing, OVCAR3-Luc is given: unit not given here.

Row | Binder | T cell mediated tumor cell killing EC50, HCC1954-Luc [nM] | T cell mediated tumor cell killing, OVCAR3-Luc
1 | B1 | 410 | –
2 | B2 | 10 | –
3 | B3 | 1200 | 420
4 | B4 | 15500 | 800
5 | B5 | 2170 | –
6 | B6 | 100 | –
7 | B7 | 100 | –
8 | B8 | 764 | –
9 | B9 | 320 | –
10 | B10 | 68 | –
11 | B11 | 73700 | 810
